# Assay results taken from patent publication US20180371076A1, “MATERNAL TH17 CELLS AND PSYCHIATRIC DISORDERS” (New York University, priority 2017, published 2018).
# B1: recombinant IL-17a protein: Recombinant mouse IL-17a cytokine (R&D), injected into the fetal brain ventricle (protein, UniProt Q62386 26-158, looked up)
# Interleukin-17A: AAIIPQSSACPNTEAKDFLQNVKVNLKVFNSLGAKVSSRRPSDYLNRSTSPWTLHRNEDPDRYPSVIWEAQCRHQRCVNAEGKLDHHMNSVLIQQEILVLKREPESCPFTFRVEKMLVGVGCTCVASIVRQAA
# Columns and labels:
# [1] = tested on: offspring of pregnant mice (MIA mouse model); assay: Three-chamber social approach test in adult offspring; assay type: in vivo
# Procedure: Maternal Immune Activation. Mice were mated overnight and females were checked daily for the presence of seminal plugs, noted as embryonic day 0.5 (E0.5). On E12.5, pregnant female mice were weighed and injected with a single dose (20 mg/kg; i.p.) of poly(I:C) (Sigma Aldrich) or PBS vehicle. Each dam was returned to its cage and left undisturbed until the birth of its litter. All pups remained with the mother until weaning on postnatal day 21 (P21), at which time mice were group housed at maximum 5 per cage with same-sex littermates. For the IL-17 cytokine blockade experiment, monoclonal IL-17a blocking antibody (clone 50104; R&D) or isotype control antibody (IgG2a, clone 54447; R&D) was administered 6 h before maternal immune activation (FIG. 2) via i.p. route (500 μg/animal) or 2 days after maternal immune activation (FIG. 5) via i.p. route (500 μg/animal).
# Three-chamber social approach. Twelve-week-old male mice were tested for social behavior using a three-chamber social approach paradigm. Experimental mice were habituated for 1 h in separate clean holding cages and then introduced into a three-chamber arena with only empty object-containment cages (circular metallic cages, Stoelting Neuroscience) for a 10-min acclimation phase in two 5-min sessions in a 3-4 h period. The following day the mice were placed in the center chamber (without access to the left and right social test areas) and allowed to explore the center area for 5 min. […] Experimental mice were given 10 min to explore both chambers and measured for approach behavior as interaction time (i.e. sniffing, approach) with targets in each chamber (within 2 cm, excluding non-nose contact or exploration). Sessions were video-recorded and object exploration time and total distance moved were analyzed using the Noldus tracking system. A social preference index was calculated as the percentage of time spent investigating the social target out of the total exploration time of both objects. […]
# [2] = tested on: offspring of pregnant mice (MIA mouse model); assay: Marble burying test in adult offspring; assay type: in vivo
# From the text: Maternal Immune Activation. Mice were mated overnight and females were checked daily for the presence of seminal plugs, noted as embryonic day 0.5 (E0.5). […] Each dam was returned to its cage and left undisturbed until the birth of its litter. All pups remained with the mother until weaning on postnatal day 21 (P21), at which time mice were group housed at maximum 5 per cage with same-sex littermates. […]
# (§1) Marble burying test. […] At the end of a 15-min exploration period, mice were gently removed from the testing cages and the number of marbles buried was recorded. A marble burying index was scored as 1 for marbles covered >50% by bedding, 0.5 for ˜50% covered, or 0 for anything less. […]
# as §1, with “test One week following the social approach task, male mice were acclimated for 0.5-1 h in separate clean holding cages.” for “test.”
# [3] = intra-ventricular injection at E14.5, compared with sham injection
Molecule,social interaction in adult offspring ([1]; prenatal exposure to MIA (poly(I:C) at E12.5)),marble burying in adult offspring ([2]; poly(I:C)-injected vs PBS-injected mothers),mobility (total distance in social approach test) ([1]; intra-ventricular injection at E14.5),"social approach behavior [1, 3]","marble burying behavior [2, 3]"
poly(I:C),social interaction deficits,enhanced marble burying,,,
B1,,,not due to group differences in mobility,social approach deficit,increased marble burying behavior
